# Molecular target: ADPr-TAMRA (ADPrT)
# Test: fluorescence polarisation
# Settings: read at the highest titration point, about 75 µM RNF114 (left graph); parent: est. 50; read off a plot
row,Substance,response
1,"RNF114 (wild type, full-length) (from UniProt Q9Y508) R198E",13
2,"RNF114 (wild type, full-length) (from UniProt Q9Y508) W181D; G182E",6

# Reference: article PMC12583694, “RNF114 and RNF166 exemplify reader-writer E3 ligases that extend K11 polyubiquitin onto sites of MARUbylation” (The EMBO Journal, 2025)
